Data taken from patent US20220175781A1, “CD40L COMPOSITIONS AND METHODS FOR TUNABLE REGULATION” (Obsidian Therapeutics, Inc., priority 2019, published 2022).
“And” between values parts separate entries of the source, which are not always exact repeats. Equal values may be shown once.

Assays:
[1] = system: Jurkat cells; assay: DHFR regulated CD40L expression, transduced Jurkat cells (flow cytometry); assay type: cell-based
Protocol: Jurkat cells were transduced with lentiviruses corresponding to OT-001662, OT-001962, OT-001961, OT-001963. 24 hours after transduction, cells were split and treated with DMSO or 50 μM TMP for another 24 hours until flow cytometry-based analysis. The results are shown in Table 37 where SR indicates stabilization ration.

[2] = system: Jurkat cells; assay: CD40L shedding ELISA of supernatant, Jurkat cells with or without CD40-Fc receptor; assay type: cell-based; set-up: CD40L levels in supernatant: unit not given here; conditions: 6 hours
Protocol: Sheddases e.g. ADAM10/17 present in the tumor microenvironment can cleave CD40L thereby preventing the successful activation of CD40 by CD40L. […] OT-001669 which has a deletion of amino acids 1-13 of CD40L was designed to reduce internalization and OT-001668 which has a deletion of amino acids 110-116 of CD40L was designed to remove the ADAM10/17 sites. Jurkat cells stably expressing the full length construct OT-001661, OT-001669, or OT-001668 were cultured for 6 hours with 1.25 μg/ml recombinant human (h) or mouse (m) CD40-Fc receptor or left untreated and tested using an ELISA assay (Table 15).

[3] = system: HEK293T cells; assay: Surface expression of CD40L trimerization mutants, transfected HEK293T cells (FACS); assay type: cell-based, human; conditions: transiently transfected HEK293T cells
Protocol: Mutations were engineered within CD40L payload to reduce the binding affinity of CD40L payload for the CD40L endogenously expressed by cells. Constructs OT-002078, OT-002079, OT-002080, OT-002081, OT-002082 were generated with the CD40L trimerization mutants. HEK293T cells were transiently transfected with the constructs and CD40L expression was measured by FACS.

[4] = system: Jurkat cells; assay: In vivo CD40L regulation in Jurkat cells harvested from bone marrow of NSG mice; conditions: constitutive construct, Jurkat cells from bone marrow, day 16
Source text: Jurkat cells stably expressing OT-001661, OT-002034 were intravenously infused into 8-week old NSG mice (20 million cells per mouse). Starting by day 15, mice were orally dosed according to the study design shown in Table 42 and Jurkat cells were harvested on day 16 from the bone marrow and analyzed by FACS. In Tables 41 and 42, TMP refers to Trimethoprim and all dosing is relative to “0 hr” time point on day 16. The results are shown in Table 43 and Table 44 where “EV” refers to empty vector control.

[5] = biological target: CD40 (UniProt P25942); assay: cell-based or functional assay
Chain of CD40 (P25942 21-277 limits assumed): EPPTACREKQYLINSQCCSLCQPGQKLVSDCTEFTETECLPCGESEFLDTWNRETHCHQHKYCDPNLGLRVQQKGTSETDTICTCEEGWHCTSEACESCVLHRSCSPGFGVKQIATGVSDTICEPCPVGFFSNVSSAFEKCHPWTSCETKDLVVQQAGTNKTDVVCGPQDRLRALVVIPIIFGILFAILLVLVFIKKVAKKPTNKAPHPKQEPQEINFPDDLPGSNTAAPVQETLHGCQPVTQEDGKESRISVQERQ

[6] = system: Jurkat cells; assay: Linker length, ER regulated CD40L, % CD40L positive Jurkat cells; assay type: cell-based
Protocol: Jurkat cells were lentivirally transduced and 24 hours after transduction were treated with DMSO or 1 μM Bazedoxifene for another 24 hours and analyzed by flow cytometry for surface expression of CD40L. […] In Table 33, SR indicates stabilization ratio.

[7] = system: T cells (CD4 and CD8 positive); assay: Bazedoxifene dose response, CD40L MFI in CD4 and CD8 positive T cells (day 4, freeze/thaw, restimulation); assay type: cell-based
Protocol: Dose response with Bazedoxifene in T cells were conducted for OT-001966, OT-001967, OT-001666. Expression of CD40L was measured at (a) day 4 after transduction, (b) after freezing and thawing the cells or (c) after freezing and thawing the cells followed by restimulation with CD3/CD28 beads. The CD40L MFI (median fluorescence intensity) within CD4 and CD8 positive subpopulations is shown in Table 34 and Table 35 respectively.

B1: OT-001662: CD40L construct with ecDHFR (M1del, R12Y, Y100I) DRD, ligand TMP (protein)
chain: MSGISLIAALAVDYVIGMENAMPWNLPADLAWFKRNTLNKPVIMGRHTWESIGRPLPGRKNIILSSQPGTDDRVTWVKSVDEAIAACGDVPEIMVIGGGRVIEQFLPKAQKLYLTHIDAEVEGDTHFPDYEPDDWESVFSEFHDADAQNSHSYCFEILERRHMIETYNQTSPRSAATGLPISMKIFMYLLTVFLITQMIGSALFAVYLHRRLDKIEDERNLHEDFVFMKTIQRCNTGERSLSLLNCEEIKSQFEGFVKDIMLNKEETKKENSFEMQKGDQNPQIAAHVISEASSKTTSVLQWAEKGYYTMSNNLVTLENGKQLTVKRQGLYYIYAQVTFCSNREASSQAPFIASLCLKSPGRFERILLRAANTHSSAKPCGQQSIHLGGVFELQPGASVFVNVTDPSQVSHGTGFTSFGLLKL
% CD40L expression ([1]; TMP (50 μM)): 90% | SR ([1]; TMP (50 μM) versus Vehicle): 90 | % CD40L expression ([1]; Vehicle (DMSO)): 1%

B2: OT-001661: constitutively expressed full length CD40L construct (protein)
chain: MHMIETYNQTSPRSAATGLPISMKIFMYLLTVFLITQMIGSALFAVYLHRRLDKIEDERNLHEDFVFMKTIQRCNTGERSLSLLNCEEIKSQFEGFVKDIMLNKEETKKENSFEMQKGDQNPQIAAHVISEASSKTTSVLQWAEKGYYTMSNNLVTLENGKQLTVKRQGLYYIYAQVTFCSNREASSQAPFIASLCLKSPGRFERILLRAANTHSSAKPCGQQSIHLGGVFELQPGASVFVNVTDPSQVSHGTGFTSFGLLKL
CD40L levels in supernatant ([2]; 1.25 μg/ml hCD40-Fc): 3599.72 | CD40L levels in supernatant ([2]; 1.25 μg/ml mCD40-Fc): 2589.21 | CD40L levels in supernatant ([2]; Untreated): 1382.06 | % CD40L positive [3]: 43.3% | CD40L MFI values ([4]; Average): 586.5 | Percent CD40L positive cells ([4]; Average): 58.9% | CD40L MFI values ([4]; individual mice): 507 and 572 and 660 and 607 | Percent CD40L positive cells ([4]; individual mice): 52.5% and 57.5% and 64.2% and 61.4%

B3: OT-001666 (Met; ER (305-549 of WT, L384M, N413D, M421G, G521R, Y537S); Histidine; CD40L; stop) (ligand)
chain: MSLALSLTADQMVSALLDAEPPILYSEYDPTRPFSEASMMGLLTNLADRELVHMINWAKRVPGFVDLTLHDQVHLLECAWMEILMIGLVWRSMEHPGKLLFAPNLLLDRDQGKCVEGGVEIFDMLLATSSRFRMMNLQGEEFVCLKSIILLNSGVYTFLSSTLKSLEEKDHIHRVLDKITDTLIHLMAKAGLTLQQQHQRLAQLLLILSHIRHMSNKRMEHLYSMKCKNVVPLSDLLLEMLDAHRLHMIETYNQTSPRSAATGLPISMKIFMYLLTVFLITQMIGSALFAVYLHRRLDKIEDERNLHEDFVFMKTIQRCNTGERSLSLLNCEEIKSQFEGFVKDIMLNKEETKKENSFEMQKGDQNPQIAAHVISEASSKTTSVLQWAEKGYYTMSNNLVTLENGKQLTVKRQGLYYIYAQVTFCSNREASSQAPFIASLCLKSPGRFERILLRAANTHSSAKPCGQQSIHLGGVFELQPGASVFVNVTDPSQVSHGTGFTSFGLLKL
SEAP reporter of HEK-Blue CD40 cells co-cultured 24 hours with transduced Jurkat cells plus 1 µM Bazedoxifene, given as Soluble CD40L (pg/ml) against a recombinant soluble CD40L standard [5]: 1820 pg/mL | Percent of Jurkat cells expressing CD40L ([6]; 1 μM Bazedoxifene): 30% | SR ([6]; 1 μM Bazedoxifene versus DMSO, % CD40L positive Jurkat cells): 3 | Percent of Jurkat cells expressing CD40L ([6]; DMSO): 10% | CD40L expression (MFI) ([7]; CD4+ cells, Day 4, Bazedoxifene 0.01 nM): 372 | CD40L expression (MFI) ([7]; CD4+ cells, Day 4, Bazedoxifene 0.1 nM): 420 | CD40L expression (MFI) ([7]; CD4+ cells, Day 4, Bazedoxifene 1 nM): 427 | CD40L expression (MFI) ([7]; CD4+ cells, Day 4, Bazedoxifene 10 nM): 476 | CD40L expression (MFI) ([7]; CD4+ cells, Day 4, Bazedoxifene 100 nM): 732 | CD40L expression (MFI) ([7]; CD4+ cells, Day 4, Bazedoxifene 1000 nM): 1397 | CD40L expression (MFI) ([7]; CD4+ cells, Day 4, Bazedoxifene 10000 nM): 1274 | CD40L expression (MFI) ([7]; CD4+ cells, Post Thaw, Bazedoxifene 0.01 nM): 134 | CD40L expression (MFI) ([7]; CD4+ cells, Post Thaw, Bazedoxifene 0.1 nM): 138 | CD40L expression (MFI) ([7]; CD4+ cells, Post Thaw, Bazedoxifene 1 nM): 145 | CD40L expression (MFI) ([7]; CD4+ cells, Post Thaw, Bazedoxifene 10 nM): 162 | CD40L expression (MFI) ([7]; CD4+ cells, Post Thaw, Bazedoxifene 100 nM): 208 | CD40L expression (MFI) ([7]; CD4+ cells, Post Thaw, Bazedoxifene 1000 nM): 241 | CD40L expression (MFI) ([7]; CD4+ cells, Post Thaw, Bazedoxifene 10000 nM): 537 | CD40L expression (MFI) ([7]; CD4+ cells, Restim, Bazedoxifene 0.01 nM): 592 | CD40L expression (MFI) ([7]; CD4+ cells, Restim, Bazedoxifene 0.1 nM): 658 | CD40L expression (MFI) ([7]; CD4+ cells, Restim, Bazedoxifene 1 nM): 682 | CD40L expression (MFI) ([7]; CD4+ cells, Restim, Bazedoxifene 10 nM): 658 | CD40L expression (MFI) ([7]; CD4+ cells, Restim, Bazedoxifene 100 nM): 953 | CD40L expression (MFI) ([7]; CD4+ cells, Restim, Bazedoxifene 1000 nM): 1688 | CD40L expression (MFI) ([7]; CD4+ cells, Restim, Bazedoxifene 10000 nM): 1577 | CD40L expression (MFI) ([7]; CD8+ cells, Day 4, Bazedoxifene 0.01 nM): 165 | CD40L expression (MFI) ([7]; CD8+ cells, Day 4, Bazedoxifene 0.1 nM): 171 | CD40L expression (MFI) ([7]; CD8+ cells, Day 4, Bazedoxifene 1 nM): 172 | CD40L expression (MFI) ([7]; CD8+ cells, Day 4, Bazedoxifene 10 nM): 176 | CD40L expression (MFI) ([7]; CD8+ cells, Day 4, Bazedoxifene 100 nM): 313 | CD40L expression (MFI) ([7]; CD8+ cells, Day 4, Bazedoxifene 1000 nM): 601 | CD40L expression (MFI) ([7]; CD8+ cells, Day 4, Bazedoxifene 10000 nM): 404 | CD40L expression (MFI) ([7]; CD8+ cells, Post Thaw, Bazedoxifene 0.01 nM): 103 | CD40L expression (MFI) ([7]; CD8+ cells, Post Thaw, Bazedoxifene 0.1 nM): 105 | CD40L expression (MFI) ([7]; CD8+ cells, Post Thaw, Bazedoxifene 1 nM): 107 | CD40L expression (MFI) ([7]; CD8+ cells, Post Thaw, Bazedoxifene 10 nM): 117 | CD40L expression (MFI) ([7]; CD8+ cells, Post Thaw, Bazedoxifene 100 nM): 170 | CD40L expression (MFI) ([7]; CD8+ cells, Post Thaw, Bazedoxifene 1000 nM): 213 | CD40L expression (MFI) ([7]; CD8+ cells, Post Thaw, Bazedoxifene 10000 nM): 326 | CD40L expression (MFI) ([7]; CD8+ cells, Restim, Bazedoxifene 0.01 nM): 238 | CD40L expression (MFI) ([7]; CD8+ cells, Restim, Bazedoxifene 0.1 nM): 244 | CD40L expression (MFI) ([7]; CD8+ cells, Restim, Bazedoxifene 1 nM): 263 | CD40L expression (MFI) ([7]; CD8+ cells, Restim, Bazedoxifene 10 nM): 253 | CD40L expression (MFI) ([7]; CD8+ cells, Restim, Bazedoxifene 100 nM): 354 | CD40L expression (MFI) ([7]; CD8+ cells, Restim, Bazedoxifene 1000 nM): 567 | CD40L expression (MFI) ([7]; CD8+ cells, Restim, Bazedoxifene 10000 nM): 458
